“Also recorded” adds a separate entry of the source. Where two headings read alike, the source gives them in different places. One block for each compound: values may come before it.
Tests used:
SRC-1 RID (Homo sapiens) [1] = biological target: SRC-1 RID (Homo sapiens) (UniProt Q15788); details: cited from earlier work
SRC-1 RID (Homo sapiens) [2] = biological target: SRC-1 RID (Homo sapiens) (UniProt Q15788); details: cited from earlier work; remark: listed apart in the source
[3] = biological target: ESR1 Ligand-binding domain tagged with glutathione-S-transferase (human); test: AlphaScreen or HTRF
ESR1 = biological target: T1, ESR1 (Homo sapiens, UniProt P03372); test: Direct; details: read-out: binding affinity (Kd) for the ESR1–Fl-E1 complex; saturation binding curves (data not shown)
T1 sequence (P03372 311-547 limits assumed): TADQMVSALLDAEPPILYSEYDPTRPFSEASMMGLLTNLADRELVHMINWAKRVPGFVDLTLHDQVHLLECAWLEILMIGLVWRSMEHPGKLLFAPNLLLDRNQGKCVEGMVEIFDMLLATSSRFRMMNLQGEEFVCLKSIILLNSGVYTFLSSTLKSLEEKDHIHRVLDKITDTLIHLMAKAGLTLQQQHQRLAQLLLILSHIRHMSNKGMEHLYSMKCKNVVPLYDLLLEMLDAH

[4] = biological target: T2, human estrogen receptor alpha ligand binding domain (ESR1-LBD) (Homo sapiens, UniProt P03372); test: Fluorescence polarization competitive ligand binding assay; details: relative binding affinity calculated from IC50, E2 set at 100%
T2 sequence (P03372 311-547 limits assumed): T1 sequence (P03372 311-547 limits assumed)

[5] = biological target: T3, ESR1 ligand-binding domain (GST-ER LBD) / SRC-3 peptides (Homo sapiens, UniProt P03372); test: TR-FRET co-activator peptide recruitment assay, SRC-3 peptides; assay type: biochemical; details: all SRC-3 peptides tested; listed as BPA
T3 sequence (P03372 311-547 limits assumed): T1 sequence (P03372 311-547 limits assumed)

SRC-1 RID (Homo sapiens), sequence (Q15788 570-780): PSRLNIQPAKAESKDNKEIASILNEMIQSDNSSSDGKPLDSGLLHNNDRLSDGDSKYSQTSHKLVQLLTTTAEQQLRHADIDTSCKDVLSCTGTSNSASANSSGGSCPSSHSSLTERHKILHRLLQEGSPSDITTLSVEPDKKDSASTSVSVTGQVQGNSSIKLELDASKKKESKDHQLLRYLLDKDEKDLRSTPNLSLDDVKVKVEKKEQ
ESR1, sequence (P03372 whole entry): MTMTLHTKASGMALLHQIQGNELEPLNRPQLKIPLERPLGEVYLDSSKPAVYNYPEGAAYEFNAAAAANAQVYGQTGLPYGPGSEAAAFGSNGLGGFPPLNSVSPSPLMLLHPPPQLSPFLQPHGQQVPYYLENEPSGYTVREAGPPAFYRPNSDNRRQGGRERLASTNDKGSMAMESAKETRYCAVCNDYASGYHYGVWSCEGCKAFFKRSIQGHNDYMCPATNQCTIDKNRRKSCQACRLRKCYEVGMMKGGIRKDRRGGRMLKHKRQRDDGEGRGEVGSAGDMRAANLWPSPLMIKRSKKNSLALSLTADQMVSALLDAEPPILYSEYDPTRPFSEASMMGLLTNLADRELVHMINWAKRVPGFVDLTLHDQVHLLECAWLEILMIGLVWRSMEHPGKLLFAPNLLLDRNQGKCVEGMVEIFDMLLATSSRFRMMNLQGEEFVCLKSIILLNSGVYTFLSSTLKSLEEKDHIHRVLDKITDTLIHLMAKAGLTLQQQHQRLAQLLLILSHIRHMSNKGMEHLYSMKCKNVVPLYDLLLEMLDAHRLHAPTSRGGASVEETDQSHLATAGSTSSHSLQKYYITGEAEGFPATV

Compound: ESR1 (from UniProt P03372)
- Kd (SRC-1 RID (Homo sapiens) [1]): 21 nM
- Kd (SRC-1 RID (Homo sapiens) [2]): 104 nM

Compound: SRC-1(1) peptide
- EC50 of 17β-estradiol for recruitment of the peptide [3]: 8.44 nM

Compound: CC(C)(c1ccc(O)cc1)c1ccc(O)cc1 [Bisphenol-A, bisphenol-A]
- RBA [4]: 0.29%
- recruitment of SRC-3 peptides to ESR1 (in words) [5]: failed to induce interaction of the receptor with SRC-3 peptides; also recorded: failed to recruit any of the SRC-3 peptides

The next lines start with the values.

- Kd (ESR1): 2.3 nM
Compound: CC12CCC3c4ccc(O)cc4CCC3C1CCC2=NNC(=S)Nc1ccc2c(c1)C(=O)OC21c2ccc(O)cc2Oc2cc(O)ccc21 (stereo not shown) [Fl-E1]

- EC50 of 17β-estradiol for recruitment of the peptide [3]: 7.19 nM
Compound: SRC-3(2) peptide

- EC50 of 17β-estradiol for recruitment of the peptide [3]: 5.08 nM
- EC50 of bisphenol-A for recruitment of the peptide [3]: 32.3 nM
Compound: SRC-1(2) peptide

- EC50 of 17β-estradiol for recruitment of the peptide [3]: 2.74 nM
Compound: SRC-3(3) peptide

From paper PMC4987164 (Comparative biochemistry and physiology. Part D, Genomics & …, 2016)
